# What was measured:
# [1] = test system: CO/N=C(\C(=O)N[C@@H]1C(=O)N2C(C(=O)O)=C(COC(N)=O)CS[C@H]12)c1ccco1; assay: purified protein, by the assay type; details: 37.0 °C
# [2] = test system: Cc1nnc(SCC2=C(C(=O)O)N3C(=O)[C@@H](NC(=O)Cn4cnnn4)[C@H]3SC2)s1; assay: purified protein, by the assay type; details: 37.0 °C
# [3] = test system: CC1(C)S[C@@H]2[C@H](NC(=O)[C@H](N)c3ccccc3)C(=O)N2[C@H]1C(=O)O; assay: purified protein, by the assay type; details: 37.0 °C
# [4] = test system: CO[C@@]1(NC(=O)Cc2cccs2)C(=O)N2C(C(=O)O)=C(COC(N)=O)CS[C@@H]21; assay: purified protein, by the assay type; details: 37.0 °C
# [5] = test system: O=C(Cc1cccs1)N[C@@H]1C(=O)N2C(C(=O)O)=C(/C=C/c3ccc([N+](=O)[O-])cc3[N+](=O)[O-])CS[C@H]12; assay: purified protein, by the assay type; details: pH 7.0; 30.0 °C
# [6] = test system: CC1=C(C(=O)O)N2C(=O)[C@@H](NC(=O)[C@H](N)c3ccccc3)[C@H]2SC1; assay: purified protein, by the assay type; details: 37.0 °C
# [7] = test system: C[C@@H](O)[C@H]1C(=O)N2C(C(=O)O)=C(SCCN=CN)C[C@H]12; assay: purified protein, by the assay type; details: 37.0 °C
# [8] = test system: CDA-1 (AmpC from C. davisae); details: cited from earlier work
# [9] = test system: rAmpC CNE-2 from C. neteri 33855; assay: Assay for ESAC and class B metallo-β-lactamase activity (nitrocefin hydrolysis with clavulanic acid or EDTA); format: biochemical; details: 2 mM test substance, 500 nM rAmpC, 500 µM nitrocefin, 30 °C, 8 min
# Description: (§1) The reactions carried out in the absence and presence of EDTA with purified rAmpC enzymes using the reporter substrate, nitrocefin, were performed. […] The class C β-lactamases are functionally cephalosporinases that are generally resistant to clavulanic acid. However, some AmpCs which show resistance to oxyimino-cephalosporins and are commonly sensitive to clavulanic acid were termed extended-spectrum AmpC β-lactamases (ESAC), similar to the extended-spectrum β-lactamases (ESBLs) of the A class according to the Bush-Jacoby classification. […] To test this aspect of ESAC activity, reactions were performed in the presence of clavulanic acid.
# (§2) For each panel, all reactions contained 500 nM rAMpC protein and 500 µM nitrocefin.
# (§3) The reactions testing ESBL activity (related to the observation that most ESBL enzymes are inhibited by clavulanic acid) were performed in the absence or presence of 2 mM clavulanic acid. Class B β-Lactamase activity was tested by reactions performed in the absence or presence of 2 mM ethylenediaminetetraacetic acid (EDTA).
# [10] = test system: rAmpC CNE-1 from C. neteri SSMD04; assay: as above; format: biochemical; details: 2 mM test substance, 500 nM rAmpC, 500 µM nitrocefin, 30 °C, 8 min
# Description: as §1, §2, §3
# [11] = test system: rAmpC CMH-4 from E. cloacae 13047; assay: as above; format: biochemical; details: 2 mM test substance, 500 nM rAmpC, 500 µM nitrocefin, 30 °C, 8 min
# Description: as §1, §2, §3
# [12] = biological target: rAmpC CNE-1 from C. neteri SSMD04 (Cedecea neteri, UniProt A0A089PY88); details: CNE-1 compared with CDA-1 (ref 13)
# [13] = biological target: rAmpC CMH-4 from E. cloacae ATCC 13047 (Enterobacter cloacae subsp. cloacae, UniProt A0A0H3CN55); assay: Michaelis-Menten kinetic analysis of substrate hydrolysis by purified rAmpC; details: CMH-4 compared with E. cloacae P99 AmpC (ref 29)
molecule,measurement,setting,value
(Cedecea neteri),Km,[1],5 µM
same,Km,[2],67 µM
same,Km,[3],72 µM
same,Km,[4],48 µM
same,Km,[5],46 ± 5 µM
same,kcat,[5],1.93 ± 0.16 s⁻¹
same,kcat/Km,[5],41900 M⁻¹ s⁻¹
same,Km,[6],2 µM
same,Km,[7],5 µM
"C[C@@H](O)[C@H]1C(=O)N2C(C(=O)O)=C(SCCN=CN)C[C@H]12 [Imipenem, imipenem]",Km,[8],~2 µM
"O=C(O)CN(CCN(CC(=O)O)CC(=O)O)CC(=O)O [EDTA, ethylenediaminetetraacetic acid]",Inhibition of nitrocefin hydrolysis,[9],"hydrolyzed the substrate, nitrocefin, in the presence of EDTA"
same,Inhibition of nitrocefin hydrolysis,[10],"hydrolyzed the substrate, nitrocefin, in the presence of EDTA"
same,Inhibition of nitrocefin hydrolysis,[11],"hydrolyzed the substrate, nitrocefin, in the presence of EDTA"
"CO[C@@]1(NC(=O)Cc2cccs2)C(=O)N2C(C(=O)O)=C(COC(N)=O)CS[C@@H]21 [Cefoxitin, cefoxitin]","Km, fold higher than for CDA-1 from C. davisae",[12],100 fold
O=C(O)[C@H]1/C(=C/CO)O[C@@H]2CC(=O)N21 [clavulanic acid],Inhibition of nitrocefin hydrolysis,[9],not inhibited
same,Inhibition of nitrocefin hydrolysis,[10],not inhibited
same,Inhibition of nitrocefin hydrolysis,[11],completely inhibited
(Enterobacter cloacae subsp. cloacae ATCC 13047),Km,[1],0.35 µM
same,Km,[3],7 µM
same,Km,[4],12 µM
same,Km,[5],11 ± 2 µM
same,Km,[6],6.8 µM
same,Km,[7],0.85 µM
O=C(Cc1cccs1)N[C@@H]1C(=O)N2C(C(=O)O)=C(/C=C/c3ccc([N+](=O)[O-])cc3[N+](=O)[O-])CS[C@H]12 [nitrocefin],"kcat, fold less than for AmpC from E. cloacae P99",[13],~ 100 fold
